Source: article PMC10681739, “High-throughput data and modeling reveal insights into the mechanisms of cooperative DNA-binding by transcription factor proteins”

T1: ETS1 (Homo sapiens, UniProt P14921)
T1 sequence: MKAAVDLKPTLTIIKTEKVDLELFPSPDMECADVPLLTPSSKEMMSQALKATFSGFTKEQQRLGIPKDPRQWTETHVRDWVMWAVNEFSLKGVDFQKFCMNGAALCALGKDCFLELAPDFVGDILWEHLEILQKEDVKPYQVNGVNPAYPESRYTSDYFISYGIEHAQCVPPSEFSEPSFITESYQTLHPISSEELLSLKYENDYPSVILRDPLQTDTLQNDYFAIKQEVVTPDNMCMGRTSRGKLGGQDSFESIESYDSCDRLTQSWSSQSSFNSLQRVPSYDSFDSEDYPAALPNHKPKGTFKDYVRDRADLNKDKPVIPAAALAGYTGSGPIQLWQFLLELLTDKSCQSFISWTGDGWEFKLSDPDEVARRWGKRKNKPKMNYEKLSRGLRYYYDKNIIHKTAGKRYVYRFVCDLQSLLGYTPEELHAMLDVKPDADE


The binders below were run against T1, ETS1 (assay: gcPBM; 1 nM ETS1). Settings: tags: N-terminal GST (pDEST15), kept (PMC6008103); label: surface-attached array probe.

Row | Binder | binding signal
1 | Table S2 B row 992 (dsDNA) DNA 1: TATCGACAAAAGTTCCGGCCCGCGGCAGCGGAGGGA DNA 2: TCCCTCCGCTGCCGCGGGCCGGAACTTTTGTCGATA | 1930 PBM fluorescence, median of replicate spots
2 | Table S2 B row 2334 (dsDNA) DNA 1: CCCCTCGCCCTTCCGCATTGCGTGTTACTTCGGTTG DNA 2: CAACCGAAGTAACACGCAATGCGGAAGGGCGAGGGG | 1460 PBM fluorescence, median of replicate spots
3 | Table S2 B row 1819 (dsDNA) DNA 1: CCGATTTCCCCGGACGTGGTGAGACGGCGCTTCGTC DNA 2: GACGAAGCGCCGTCTCACCACGTCCGGGGAAATCGG | 1790 PBM fluorescence, median of replicate spots
4 | Table S2 B row 1194 (dsDNA) DNA 1: TGAGTTTTGTTTCCGATTCACCTCAGAAGATACTTT DNA 2: AAAGTATCTTCTGAGGTGAATCGGAAACAAAACTCA | 1570 PBM fluorescence, median of replicate spots
5 | Table S2 B row 591 (dsDNA) DNA 1: CACCTCCTACTTCCCCCCGCTGATAACTACCAACCC DNA 2: GGGTTGGTAGTTATCAGCGGGGGGAAGTAGGAGGTG | 1740 PBM fluorescence, median of replicate spots
6 | Table S2 B row 618 (dsDNA) DNA 1: GCGCAAGGATCCGGTTTGTTCTGGTGTGGGGAGGGG DNA 2: CCCCTCCCCACACCAGAACAAACCGGATCCTTGCGC | 2310 PBM fluorescence, median of replicate spots
7 | Table S2 B row 3693 (dsDNA) DNA 1: ACCAAAACACATCCTGGGGCCCCTCACAATTAGTGA DNA 2: TCACTAATTGTGAGGGGCCCCAGGATGTGTTTTGGT | 2280 PBM fluorescence, median of replicate spots
8 | Table S2 B row 4071 (dsDNA) DNA 1: ATGGAAATGTCGTTAAGAACTTCCTCTTTTACTAGA DNA 2: TCTAGTAAAAGAGGAAGTTCTTAACGACATTTCCAT | 2700 PBM fluorescence, median of replicate spots
9 | Table S2 B row 56 (dsDNA) DNA 1: CAGAGAAACAGGAAGAACAGTGCTTTCAACTGAAAT DNA 2: ATTTCAGTTGAAAGCACTGTTCTTCCTGTTTCTCTG | 2500 PBM fluorescence, median of replicate spots
10 | Table S2 B row 2614 (dsDNA) DNA 1: GGCTTCCGCGCCTGCAGAACTACAGCTCCCAGAAGG DNA 2: CCTTCTGGGAGCTGTAGTTCTGCAGGCGCGGAAGCC | 2000 PBM fluorescence, median of replicate spots
11 | Table S2 B row 1261 (dsDNA) DNA 1: ACTCCAGAGGAAGTGGCAAGACGAGCGCGGCAACGG DNA 2: CCGTTGCCGCGCTCGTCTTGCCACTTCCTCTGGAGT | 2240 PBM fluorescence, median of replicate spots
12 | Table S2 B row 2632 (dsDNA) DNA 1: TACGTCACTTCCGGGCCGCCGTCCTGCAGGCAAGGG DNA 2: CCCTTGCCTGCAGGACGGCGGCCCGGAAGTGACGTA | 21800 PBM fluorescence, median of replicate spots
13 | Table S2 B row 2289 (dsDNA) DNA 1: GAGGAAAGGAAGTCAAGGCCAGGGCCGAAGAGGCCA DNA 2: TGGCCTCTTCGGCCCTGGCCTTGACTTCCTTTCCTC | 1410 PBM fluorescence, median of replicate spots
14 | Table S2 B row 1838 (dsDNA) DNA 1: GTACGTTTCCTCATTGACTGGCCAACGACTATCATG DNA 2: CATGATAGTCGTTGGCCAGTCAATGAGGAAACGTAC | 2340 PBM fluorescence, median of replicate spots
15 | Table S2 B row 1858 (dsDNA) DNA 1: TGGCTTCCTGTCTGTCCTTCATCAGCCCAGAGAGGC DNA 2: GCCTCTCTGGGCTGATGAAGGACAGACAGGAAGCCA | 20600 PBM fluorescence, median of replicate spots
16 | Table S2 B row 3457 (dsDNA) DNA 1: CCACTGCCGGAAGGGGAACTCTGGGGGTGCGCGAGT DNA 2: ACTCGCGCACCCCCAGAGTTCCCCTTCCGGCAGTGG | 2580 PBM fluorescence, median of replicate spots
17 | Table S2 B row 1755 (dsDNA) DNA 1: CAGAAAGAGGAAATGATGCGAGTCCACACCGAAGGC DNA 2: GCCTTCGGTGTGGACTCGCATCATTTCCTCTTTCTG | 2640 PBM fluorescence, median of replicate spots
18 | Table S2 B row 3748 (dsDNA) DNA 1: GATTCATATCCTCCTCTATGCAACGACAGCATCTTC DNA 2: GAAGATGCTGTCGTTGCATAGAGGAGGATATGAATC | 2160 PBM fluorescence, median of replicate spots
19 | Table S2 B row 1649 (dsDNA) DNA 1: CCCCCACATCCTGTTTGGTTAGTGGGACACCTCAAC DNA 2: GTTGAGGTGTCCCACTAACCAAACAGGATGTGGGGG | 23400 PBM fluorescence, median of replicate spots
20 | Table S2 B row 3763 (dsDNA) DNA 1: GCGCCCCGTCCTTCCGCAGCCCAAGCGCCTCTTCCC DNA 2: GGGAAGAGGCGCTTGGGCTGCGGAAGGACGGGGCGC | 1510 PBM fluorescence, median of replicate spots
21 | Table S2 B row 2398 (dsDNA) DNA 1: GCTTTGCAGTTTCCTCTATGGAACACCAGACACAGT DNA 2: ACTGTGTCTGGTGTTCCATAGAGGAAACTGCAAAGC | 2540 PBM fluorescence, median of replicate spots

Row | Binder | binding signal
22 | Table S2 B row 2482 (dsDNA) DNA 1: TGCGACGGAAGCAGGAACTTGCTAACTACAAAACCC DNA 2: GGGTTTTGTAGTTAGCAAGTTCCTGCTTCCGTCGCA | 1960 PBM fluorescence, median of replicate spots
23 | Table S2 B row 528 (dsDNA) DNA 1: CGAACTACATCCTCTGAGGTGTAGCTTTTTGGCCTG DNA 2: CAGGCCAAAAAGCTACACCTCAGAGGATGTAGTTCG | 2040 PBM fluorescence, median of replicate spots
24 | Table S2 B row 1189 (dsDNA) DNA 1: TCCAGCGGAAGGGGGCATCTTTACGGCAGAGGCAGC DNA 2: GCTGCCTCTGCCGTAAAGATGCCCCCTTCCGCTGGA | 1600 PBM fluorescence, median of replicate spots
25 | Table S2 B row 3568 (dsDNA) DNA 1: GAACCCCAAGTTCCGGCTGGCACTGCGCCGGAGCCT DNA 2: AGGCTCCGGCGCAGTGCCAGCCGGAACTTGGGGTTC | 2450 PBM fluorescence, median of replicate spots
26 | Table S2 B row 3942 (dsDNA) DNA 1: GAAATTTCCGCTTTCTTTCTGCAGCAGGAACCTCGG DNA 2: CCGAGGTTCCTGCTGCAGAAAGAAAGCGGAAATTTC | 21200 PBM fluorescence, median of replicate spots
27 | Table S2 B row 1696 (dsDNA) DNA 1: CTCATCAGTCATCCGGCTGGACTGCAGGAGCTCTCC DNA 2: GGAGAGCTCCTGCAGTCCAGCCGGATGACTGATGAG | 1700 PBM fluorescence, median of replicate spots
28 | Table S2 B row 1406 (dsDNA) DNA 1: GCACACACACATCCTCCCGGCCCGGCCGCCGCCGCT DNA 2: AGCGGCGGCGGCCGGGCCGGGAGGATGTGTGTGTGC | 2180 PBM fluorescence, median of replicate spots
29 | Table S2 B row 2348 (dsDNA) DNA 1: CAAAAGTGCTTCCTCTCGAGGGGTTGTAGTTCTTAC DNA 2: GTAAGAACTACAACCCCTCGAGAGGAAGCACTTTTG | 1960 PBM fluorescence, median of replicate spots
30 | Table S2 B row 606 (dsDNA) DNA 1: TCCGGAAGTCGGAGGAACACCCCAGCCGGCGCAGCC DNA 2: GGCTGCGCCGGCTGGGGTGTTCCTCCGACTTCCGGA | 2610 PBM fluorescence, median of replicate spots
31 | Table S2 B row 1694 (dsDNA) DNA 1: CCCTTCCTGAGGGCAAGGCGAGGGCACCTACAGCCT DNA 2: AGGCTGTAGGTGCCCTCGCCTTGCCCTCAGGAAGGG | 1830 PBM fluorescence, median of replicate spots
32 | Table S2 B row 753 (dsDNA) DNA 1: AGGGACTTCCGGTGACCAGAGCACTAGCGCCGTAAA DNA 2: TTTACGGCGCTAGTGCTCTGGTCACCGGAAGTCCCT | 55700 PBM fluorescence, median of replicate spots
33 | Table S2 B row 4047 (dsDNA) DNA 1: CCGCTCTTCCTGGAGGTCTCTTGGCCGCTCACCCTC DNA 2: GAGGGTGAGCGGCCAAGAGACCTCCAGGAAGAGCGG | 1540 PBM fluorescence, median of replicate spots
34 | Table S2 B row 1848 (dsDNA) DNA 1: TCCCGGGGAGGAAGTGGCGAGAATTCGGGGGTGGGC DNA 2: GCCCACCCCCGAATTCTCGCCACTTCCTCCCCGGGA | 2460 PBM fluorescence, median of replicate spots
35 | Table S2 B row 1905 (dsDNA) DNA 1: ACTTCCAGGAAGCCCCATAGTCCAGAAACCTACACA DNA 2: TGTGTAGGTTTCTGGACTATGGGGCTTCCTGGAAGT | 2110 PBM fluorescence, median of replicate spots
36 | Table S2 B row 1424 (dsDNA) DNA 1: TGCTTGTCCGGTGGCTGCTGCGCTGCCGAAACGAAT DNA 2: ATTCGTTTCGGCAGCGCAGCAGCCACCGGACAAGCA | 1420 PBM fluorescence, median of replicate spots
37 | Table S2 B row 1285 (dsDNA) DNA 1: TTAAACACGGAAGTGCATCGGTTGTTGTAGTTATTC DNA 2: GAATAACTACAACAACCGATGCACTTCCGTGTTTAA | 2090 PBM fluorescence, median of replicate spots
38 | Table S2 B row 269 (dsDNA) DNA 1: AGAAAAGGAAATGGTGGGCTGCACACCCCAGCTCAC DNA 2: GTGAGCTGGGGTGTGCAGCCCACCATTTCCTTTTCT | 1890 PBM fluorescence, median of replicate spots
39 | Table S2 B row 1511 (dsDNA) DNA 1: GCACCGTGGCACTTCCGCGAGCGCCGCTGGCCCTGC DNA 2: GCAGGGCCAGCGGCGCTCGCGGAAGTGCCACGGTGC | 2410 PBM fluorescence, median of replicate spots
40 | Table S2 B row 713 (dsDNA) DNA 1: CCCTTCCGCGTGGGTTGCACCTGCTAATCACAGAGC DNA 2: GCTCTGTGATTAGCAGGTGCAACCCACGCGGAAGGG | 1660 PBM fluorescence, median of replicate spots
41 | Table S2 B row 1455 (dsDNA) DNA 1: AGTGAGCTTCCTCCTGAGGCCTGAGGCAACCCCAGG DNA 2: CCTGGGGTTGCCTCAGGCCTCAGGAGGAAGCTCACT | 1620 PBM fluorescence, median of replicate spots
42 | Table S2 B row 3076 (dsDNA) DNA 1: AGGCCTCGCTTCCTCTCCTGAGCACACCCTGCAGCT DNA 2: AGCTGCAGGGTGTGCTCAGGAGAGGAAGCGAGGCCT | 2200 PBM fluorescence, median of replicate spots
